The target in series [1] is T1, C-terminus of lamin A, P02545.
T1 chain: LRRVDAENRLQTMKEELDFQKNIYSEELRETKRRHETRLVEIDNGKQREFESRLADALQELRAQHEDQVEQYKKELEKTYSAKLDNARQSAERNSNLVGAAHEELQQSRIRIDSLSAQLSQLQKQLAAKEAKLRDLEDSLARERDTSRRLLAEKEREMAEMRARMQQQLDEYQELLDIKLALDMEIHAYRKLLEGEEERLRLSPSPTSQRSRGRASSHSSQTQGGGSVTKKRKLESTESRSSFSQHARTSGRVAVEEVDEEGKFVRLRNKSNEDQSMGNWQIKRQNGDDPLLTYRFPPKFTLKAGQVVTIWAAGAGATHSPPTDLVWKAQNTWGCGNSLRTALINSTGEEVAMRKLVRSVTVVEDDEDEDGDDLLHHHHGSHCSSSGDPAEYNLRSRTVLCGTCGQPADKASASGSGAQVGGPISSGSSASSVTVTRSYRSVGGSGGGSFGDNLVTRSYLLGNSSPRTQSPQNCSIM

The target in series [2] is poly(ADP) ribose polymerase (PARP), P09874.
The next series deals with T2, rev-caspase-3 (human, UniProt P42574 1-175, limits assumed).
T2 sequence: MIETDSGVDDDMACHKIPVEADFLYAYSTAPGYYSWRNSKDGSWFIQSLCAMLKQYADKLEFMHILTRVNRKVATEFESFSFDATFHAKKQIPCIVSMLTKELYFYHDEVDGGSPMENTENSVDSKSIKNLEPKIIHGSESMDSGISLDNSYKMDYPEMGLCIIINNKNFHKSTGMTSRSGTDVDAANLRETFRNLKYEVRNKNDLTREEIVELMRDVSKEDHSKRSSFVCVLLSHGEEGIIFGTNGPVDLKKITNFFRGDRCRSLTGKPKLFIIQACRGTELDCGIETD
Description: cell-based or functional assay.

We go through 5 molecules from patent US6379950 (THOMAS JEFFERSON UNIVERSITY, dated 2002).

fmk = not defined here

Chain of poly(ADP) ribose polymerase (PARP), P09874 (P09874 whole entry, looked up): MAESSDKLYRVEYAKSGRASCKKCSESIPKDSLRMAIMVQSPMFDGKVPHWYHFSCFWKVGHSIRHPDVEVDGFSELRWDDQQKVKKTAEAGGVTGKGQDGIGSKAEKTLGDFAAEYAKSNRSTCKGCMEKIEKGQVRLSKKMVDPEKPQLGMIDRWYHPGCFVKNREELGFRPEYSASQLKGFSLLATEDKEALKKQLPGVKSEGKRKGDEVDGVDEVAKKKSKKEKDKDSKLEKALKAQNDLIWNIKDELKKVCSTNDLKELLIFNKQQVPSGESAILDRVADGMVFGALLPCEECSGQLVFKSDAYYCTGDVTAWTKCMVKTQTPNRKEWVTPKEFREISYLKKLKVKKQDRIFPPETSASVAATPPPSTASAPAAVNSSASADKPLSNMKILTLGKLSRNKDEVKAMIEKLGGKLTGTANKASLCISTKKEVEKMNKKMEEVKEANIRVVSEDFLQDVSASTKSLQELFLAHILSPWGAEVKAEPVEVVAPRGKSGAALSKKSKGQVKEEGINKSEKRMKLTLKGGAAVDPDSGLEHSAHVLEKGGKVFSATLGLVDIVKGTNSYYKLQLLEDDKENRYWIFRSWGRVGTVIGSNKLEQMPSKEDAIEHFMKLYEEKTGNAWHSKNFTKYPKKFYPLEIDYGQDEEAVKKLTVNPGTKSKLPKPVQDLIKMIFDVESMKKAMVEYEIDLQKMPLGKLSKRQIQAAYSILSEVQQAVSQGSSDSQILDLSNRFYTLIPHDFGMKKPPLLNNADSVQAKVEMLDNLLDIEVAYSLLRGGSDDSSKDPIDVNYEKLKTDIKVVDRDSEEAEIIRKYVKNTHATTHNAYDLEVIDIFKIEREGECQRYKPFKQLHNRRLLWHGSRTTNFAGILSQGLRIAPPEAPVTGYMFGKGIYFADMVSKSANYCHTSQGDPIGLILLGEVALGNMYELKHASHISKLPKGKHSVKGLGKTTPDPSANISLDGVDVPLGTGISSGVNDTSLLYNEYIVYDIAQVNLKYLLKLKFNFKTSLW

B1: caspase-3 (wild type) (protein)
chain: MENTENSVDSKSIKNLEPKIIHGSESMDSGISLDNSYKMDYPEMGLCIIINNKNFHKSTGMTSRSGTDVDAANLRETFRNLKYEVRNKNDLTREEIVELMRDVSKEDHSKRSSFVCVLLSHGEEGIIFGTNGPVDLKKITNFFRGDRCRSLTGKPKLFIIQACRGTELDCGIETDSGVDDDMACHKIPVDADFLYAYSTAPGYYSWRNSKDGSWFIQSLCAMLKQYADKLEFMHILTRVNRKVATEFESFSFDATFHAKKQIPCIVSMLTKELYFYH
Take B1: the “substrate cleavage (bacterial extract incubated with 35S-labelled lamin A C-terminus, autoradiography)” value in series [1] is “both caspase-6 variants, but not caspase-3 variants efficiently cleaved lamin”. In series [2], the “substrate cleavage (bacterial extract incubated with purified PARP, Western blot)” value is “Both caspase-3 variants (rev and WT), but not caspase-6 variants efficiently cleaved PARP”.

B2: caspase-6 (wild type) (protein)
chain: MSSASGLRRGHPAGGEENMTETDAFYKREMFDPAEKYKMDHRRRGIALIFNHERFFWHLTLPERRGTCADRDNLTRRFSDLGFEVKCFNDLKAEELLLKIHEVSTVSHADADCFVCVFLSHGEGNHIYAYDAKIEIQTLTGLFKGDKCHSLVGKPKIFIIQACRGNQHDVPVIPLDVVDNQTEKLDTNITEVDAASVYTLPAGADFLMCYSVAEGYYSHRETVNGSWYIQDLCEMLGKYGSSLEFTELLTLVNRKVSQRRVDFCKDPSAIGKKQVPCFASMLTKKLHFFPKSN
B2: the “substrate cleavage (bacterial extract incubated with 35S-labelled lamin A C-terminus, autoradiography)” value in series [1] is recorded as “both caspase-6 variants, but not caspase-3 variants efficiently cleaved lamin”. Further, the “substrate cleavage (bacterial extract incubated with purified PARP, Western blot)” value in series [2] is “Both caspase-3 variants (rev and WT), but not caspase-6 variants efficiently cleaved PARP”.

B3: rev-caspase-6 (protein)
chain: MVEIDAASVYTLPAGADFLMCYSVAEGYYSHRETVNGSWYIQDLCEMLGKYGSSLEFTELLTLVNRKVSQRRVDFCKDPSAIGKKQVPCFASMLTKKLHFFPKSNLEHHHHHHVEIDGGSPMSSASGLRRGHPAGGEENMTETDAFYKREMFDPAEKYKMDHRRRGIALIFNHERFFWHLTLPERRGTCADRDNLTRRFSDLGFEVKCFNDLKAEELLLKIHEVSTVSHADADCFVCVFLSHGEGNHIYAYDAKIEIQTLTGLFKGDKCHSLVGKPKIFIIQACRGNQHDVPVIPLDVVD
In the case of B3, in series [1], the “substrate cleavage (bacterial extract incubated with 35S-labelled lamin A C-terminus, autoradiography)” value was “both caspase-6 variants, but not caspase-3 variants efficiently cleaved lamin”. Moreover, in series [2], the “substrate cleavage (bacterial extract incubated with purified PARP, Western blot)” value is “Both caspase-3 variants (rev and WT), but not caspase-6 variants efficiently cleaved PARP”.

With {code z}-Val-Ala-Asp-fmk (reading uncertain; also: printed as z-VAD-fmk) [z-VAD-fmk], the “amount of inhibitor required for complete inhibition, relative to DEVD-CHO” value with rev-caspase-3 is approximately 10 fold.

B4: rev-caspase-3 (protein)
chain: MIETDSGVDDDMACHKIPVEADFLYAYSTAPGYYSWRNSKDGSWFIQSLCAMLKQYADKLEFMHILTRVNRKVATEFESFSFDATFHAKKQIPCIVSMLTKELYFYHDEVDGGSPMENTENSVDSKSIKNLEPKIIHGSESMDSGISLDNSYKMDYPEMGLCIIINNKNFHKSTGMTSRSGTDVDAANLRETFRNLKYEVRNKNDLTREEIVELMRDVSKEDHSKRSSFVCVLLSHGEEGIIFGTNGPVDLKKITNFFRGDRCRSLTGKPKLFIIQACRGTELDCGIETD
In the case of B4, the “substrate cleavage (bacterial extract incubated with 35S-labelled lamin A C-terminus, autoradiography)” value in series [1] is on record as “both caspase-6 variants, but not caspase-3 variants efficiently cleaved lamin”. Moreover, the “substrate cleavage (bacterial extract incubated with purified PARP, Western blot)” value in series [2] is “Both caspase-3 variants (rev and WT), but not caspase-6 variants efficiently cleaved PARP”.
